The source of these data is US20180118815A1.

Assay [1] concerns the target HIV-1 Env gp140 89.6 (HIV-1 isolate 89.6) (UniProt Q73372). The experiment in a line: SPR, Biacore X100, single-cycle, analytes at 0.1-1,000 nM on gp140 89.6, bivalent binding model. (In general: In SPR one partner is held on a chip, and binding of the other changes the refractive index at the surface.)
Assay [2] shares this target. The experiment in a line: ELISA on coated gp140 89.6 and SPR (Biacore X100, single-cycle, bivalent model). Background: ELISA stands for enzyme-linked immunosorbent assay.
Assay [3] has the same target. The experiment in a line: ELISA, gp140 89.6 coated at 2 µg/ml, detection with HRP goat anti-human IgG (Fab-specific).

In general, koff refers to the first-order rate constant of dissociation. Low values mean slow dissociation, high ones fast dissociation. The term kon denotes a measure of how fast the partners come together. High values mean faster complex formation, low ones slower complex formation. In assay [1], “MD (mD1.22-CH1/m36.4-CK heterodimer, wild-type CH1-CK)” showed a Kd of 16000 nM, a koff of 0.077 s⁻¹ and a kon of 4800 M⁻¹ s⁻¹.
As a reminder, the EC50 (read off the curve) is the concentration giving half of the maximal effect. The low end stands for an effect from little substance, the high end for a need for much substance. “MD13 (MD mutant with S64E/S66V in CH1 and S69L/T71S in CK)” came in with a fold higher affinity than MD in assay [2] of 1000 fold. This substance had an EC50 (read off the curve) in assay [3] of 1 to 10 nM. In addition, in assay [1], the Kd came out at 17 nM, the koff amounted to 0.00081 s⁻¹ and the kon was 47000 M⁻¹ s⁻¹.
